This passage reports protein stability index results from the supplement of paper PMC10567573.

± gives the standard deviation.

The data set in a line: protein stability index of a GFP-peptide fusion (GPS, HEK-293T) (PSI 1-6); higher = more stable.
Where [1] appears, read: treatment: DMSO, c terminus: a fixed tail appended.
Where [2] appears, read: treatment: MLN4924 1 uM, 8 h, c terminus: a fixed tail appended.
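Note: 24-mer peptide tiles fused after GFP, lentivirally expressed, FACS-sorted into six equal bins by GFP/DsRed ratio, decoded by Illumina sequencing, PSI is the read-weighted mean bin number.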

Consider TCISELRMLQREGCFRSQGASLRL [M1AP], for which the protein stability index is, setting by setting: under setting [1], 2 ± 0.29; under setting [2], 2.19 ± 0.37.

Turning to TCQKFLIQYNRRQLLILLQNCTDE [POP5], the protein stability index runs as follows: under setting [1], 2.73 ± 0.31; under setting [2], 2.36 ± 0.21.

On to TCVVPFDSEEEVIERANNVKYGLA [ALDH8A1], for which the protein stability index turned out to be 4.29 ± 0.33 under setting [1] and 4.41 ± 0.23 under setting [2].

For TCVYIAEIAPQHRRGLLVSLNELM [SLC2A12], the protein stability index runs as follows: under setting [1], 2.73 ± 0.6; under setting [2], 2.46 ± 0.56.

For TDGDHNVYPRPPEPREFSSRNFGV [ZC2HC1C], the protein stability index stood at 3.89 ± 0.23 under setting [1] and 3.97 ± 0.18 under setting [2].

On to TDGRSPRRSRDPGYDHLWDETLSS [PLEKHN1], for which the protein stability index worked out at 4.33 ± 0.24 under setting [1] and 4.45 ± 0.23 under setting [2].

For TDIDIDTLCAVLERDTLSIRESRL [BTBD1], the protein stability index is, setting by setting: under setting [1], 2.84 ± 0.2; under setting [2], 3.15 ± 0.37.

TDSDDDFDMSRYSSSGYSSAEINQ [FAM219A]: the protein stability index is, setting by setting: under setting [1], 5.04 ± 0.21; under setting [2], 5.22 ± 0.37.

In turn, TDYINASFMDGYKQKNAYIGTQGP [PTPN9] showed a protein stability index under setting [1] of 2.94 ± 0.24 and a protein stability index under setting [2] of 3.21 ± 0.21.

For TEFRKGAQSLPGPCAAAREGRLER [IRX6], the protein stability index runs as follows: under setting [1], 4.53 ± 0.17; under setting [2], 4.62 ± 0.21.

In turn, TENRYCVQLSQIQGLIGSVEEQLA [KRT17] gave a protein stability index under setting [1] of 3.1 ± 0.51 and a protein stability index under setting [2] of 3.24 ± 0.22.

Consider TGEIMHALKMTWHVHCFTCAACKT [PDLIM7], for which the protein stability index is 2.69 ± 0.33 under setting [1] and 2.27 ± 0.25 under setting [2].

As for TGLSMIANGGAICAVTFFTILLSY [OR4A15], the protein stability index by setting is: under setting [1], 2.85 ± 0.28; under setting [2], 3.16 ± 0.38.

For the sequence TILLDGRRVRLELWDTSGQGRFCT [RAB40C], the protein stability index is, setting by setting: under setting [1], 2.16 ± 0.2; under setting [2], 2.14 ± 0.34.

Regarding TISSWRNDRMSTRHDGYATNDGNH [RBMY1A1], the protein stability index amounted to 3.99 ± 0.23 under setting [1] and 4.02 ± 0.086 under setting [2].

Consider TKQWTLIAKHLKGRLGKQCRERWH [MYBL2], for which the protein stability index worked out at 2.51 ± 0.68 under setting [1] and 2.26 ± 0.38 under setting [2].

With TLAGVGAQGAALEDPDYYGQEIWS [CPXM2], the protein stability index under setting [2] was determined as 3.96 ± 0.11.

For TLHQRTHTEERPFKCNYCGKSFRQ [ZNF449], the protein stability index by setting is: under setting [1], 2.55 ± 0.33; under setting [2], 2.91 ± 0.51.

Take TLLAIGTKLPENQAIQMRLVDVAC [INTS4]: the protein stability index is, setting by setting: under setting [1], 2.12 ± 0.19; under setting [2], 2.09 ± 0.15.

As to TLLQDHENQRLFEMLGRKCLTLAT [WAS], the protein stability index was found to be 2.37 ± 0.29 under setting [1] and 2.33 ± 0.28 under setting [2].

With TLQNGRRHIHHLGNQLQLNQHCLD [BRF1], the protein stability index is, setting by setting: under setting [1], 3.1 ± 0.034; under setting [2], 3.31 ± 0.097.

Take TLVQDLANAFQQEAQTSGKERLLL [CHIT1]: the protein stability index reads like this: under setting [1], 3.16 ± 0.3; under setting [2], 2.91 ± 0.19.

On to TMLKAMFSGRMEVLTDSEGWILID [KCTD10], for which the protein stability index came out at 2.51 ± 0.57 under setting [1] and 2.75 ± 0.46 under setting [2].

In turn, TNLVLPSNGSMHNYCPQQTKITSA [EDNRA] yielded a protein stability index under setting [1] of 3.75 ± 0.13 and a protein stability index under setting [2] of 3.63 ± 0.14.

TNTGPAGSSASTSPAPLDTCPSSS [DYRK1B]: the protein stability index is, setting by setting: under setting [1], 5.24 ± 0.17; under setting [2], 5.31 ± 0.18.

Take TPATTTEPPKPTFPAYTQSTASTT [ZNF207]: the protein stability index by setting is: under setting [1], 4.99 ± 0.12; under setting [2], 5.1 ± 0.15.

As to TPTPQALYPDLSCPEGLEELLSAP [SPSB2], the protein stability index amounted to 4.54 ± 0.24 under setting [1] and 4.55 ± 0.3 under setting [2].

With TQEPIFTFTASFSGKVFPFFAVWK [TRIM15], the protein stability index by setting is: under setting [1], 3.19 ± 0.36; under setting [2], 2.89 ± 0.66.

Consider TQIGFADLMGVLTKGVREVERALQ [FEM1A], for which the protein stability index under setting [1] stood at 2.29 ± 0.61 and the protein stability index under setting [2] is 2.28 ± 0.45.

For TQQFKAEKLKEKLKMKEREEAWVK [PPP2R5C], the protein stability index stood at 3.26 ± 0.64 under setting [1] and 3.72 ± 0.62 under setting [2].

For TQRPAMVQTEDQYQFSYRAALEYL [PTPRD], the protein stability index by setting is: under setting [1], 2.91 ± 0.35; under setting [2], 3.06 ± 0.31.

Sequence TRCKSSEEKKPGELKRLVESRRQQ [TRIM39] displayed a protein stability index under setting [1] of 5 ± 0.32 and a protein stability index under setting [2] of 5.02 ± 0.27.

Turning to TSGKRYVYRFVCDLQNLLGFTPEE [ETS2], the protein stability index worked out at 2.56 ± 0.63 under setting [1] and 2.89 ± 0.84 under setting [2].

Consider TSRAPSTYTYTSRPRALPCQRSRY [RSPH3], for which the protein stability index by setting is: under setting [1], 3.65 ± 0.15; under setting [2], 3.84 ± 0.31.

Take TSVEECSQKGCLALSLLELLGFNL [CLCN6]: the protein stability index under setting [1] worked out at 2.57 ± 0.68 and the protein stability index under setting [2] is 2.37 ± 0.15.

In the case of TSYTRQACLVSCFQQLMVETCSCG [SCNN1D], the protein stability index is, setting by setting: under setting [1], 2.48 ± 0.53; under setting [2], 2.31 ± 0.27.

In the case of TTGSKELDKLLQGGIETGSITEMF [RAD51], the protein stability index is, setting by setting: under setting [1], 3.51 ± 0.27; under setting [2], 3.76 ± 0.51.

As to TTSETQKSVQCGTWTKHAEGGIFT [NETO1], the protein stability index under setting [1] came out at 3.59 ± 0.085 and the protein stability index under setting [2] is 3.62 ± 0.23.

As for TTTSAATATTAPPALDIFGDLFES [SNAP91], the protein stability index under setting [1] was found to be 4.47 ± 0.1 and the protein stability index under setting [2] turned out to be 4.68 ± 0.16.

As to TVCGDLHGQLDDLIFIFYKNGLPS [PPEF2], the protein stability index worked out at 2.87 ± 2.1 under setting [1] and 1.94 ± 0.41 under setting [2].

As for TVECYNPRTNEWTYVAKMSEPHYG [KLHL13], the protein stability index runs as follows: under setting [1], 2.36 ± 0.1; under setting [2], 2.52 ± 0.72.

Regarding TVPGQALACGSNRFNKLGLDHLSL [NEK8], the protein stability index is 2.44 ± 0.34 under setting [1] and 2.45 ± 0.12 under setting [2].

Turning to TVTSVSCCHGNTLLAVRSVTDEPV [NEK8], the protein stability index under setting [1] is 3.21 ± 0.23 and the protein stability index under setting [2] was found to be 3.14 ± 0.33.

Regarding TVYKARDPHSGHFVALKSVRVPNG [CDK4], the protein stability index by setting is: under setting [1], 2.31 ± 0.48; under setting [2], 2.68 ± 0.49.

On to TWGKNKPGIGAVILKRFCWLLLQ [FAN1], for which the protein stability index is, setting by setting: (treatment: DMSO, c terminus: native) 3.45 ± 0.45; (treatment: MLN4924 1 uM, 8 h, c terminus: native) 2.87 ± 0.53.

As for TWHDERFLYMLMEYVPGGELFSYL [PRKX], the protein stability index was determined as 2.85 ± 0.7 under setting [1] and 2.75 ± 0.35 under setting [2].

Take TYVGALFNGLTLLLMAVVSMFTLP [RTN1]: the protein stability index was 3 ± 0.58 under setting [1] and 3.43 ± 0.38 under setting [2].

As to VCGKSFSRTTCLFLHLRTHTEERP [ZNF8], the protein stability index is 2.23 ± 0.56 under setting [1] and 1.93 ± 0.38 under setting [2].

The sequence VDADAGHNAWLSYSLLPQSTAPGL [PCDHGC5] gave a protein stability index under setting [1] of 2.87 ± 0.33 and a protein stability index under setting [2] of 3 ± 0.26.

In the case of VEKEEEPDPEPPPVTPQVGEGRKS [SMG5], the protein stability index is 5.48 ± 0.13 under setting [1] and 5.53 ± 0.21 under setting [2].

VEVLGPYEPLLSRVQAALVWERPA [RETREG3]: the protein stability index turned out to be 2.37 ± 0.39 under setting [1] and 2.48 ± 0.24 under setting [2].

As for VFSDTATPDIKSHYAFRIFDFDDD [CIB1], the protein stability index is, setting by setting: under setting [1], 3.19 ± 0.27; under setting [2], 3.18 ± 0.42.

For VFYLWSAIEIFRYSFYMLTCIDMD [HACD3], the protein stability index by setting is: under setting [1], 3.13 ± 0.15; under setting [2], 3.5 ± 0.47.
